Measurements reported in the nanobody polyreactivity screen of Harvey et al. (2022).

test: yeast display, Sf9 membrane polyspecificity reagent, FACS + sequencing; frameworks hold sequencing errors
Method in brief: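 Galactose induction of a Saccharomyces cerevisiae BJ5465 synthetic nanobody display library ran 36–48 hours. The cells were then stained for 1 hour at 4 °C with 10% biotinylated, detergent-solubilized Sf9 membrane reagent, pulled down on streptavidin microbeads and FACS-sorted into low and high (top ~1%) gates on expression and reagent-binding fluorescence. Labels for polyreactivity follow the gate of origin.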

Sequence	polyreactivity (PSR sort gate)
QVQLVESGGGLVQAGGRLRLSCAASGRTFRPYALGWYRQPPVKERELVAAIDSSGTSTYYADSVKGRFTISRDNAKNTVYLQMNSLKPEDTAVYDCAQASPDHWYSRYDYWGQGTQVTVSS	low polyreactivity
QVQLVESGGGLVQAGGRLRLSCAASGRTFRRYAMGWYRPAPGTERELVAAISWSGGSTYYADSVKGRFTISRDNAKNSVYLQMNSLKPEDTAVYYCGAETRYGYGYWGQGTQVTVSS	high polyreactivity
QVQLVESGGGLVQAGGRLRLSCAASGSIFASYAMGWYRQAPGKERELVAAITSDGNTYYADSVKGRFTISRDNAKNTVYLPMNSLIPEDTAVYYCAADRYSTYPYAKGTEFYYWGQGTQVTVSS	low polyreactivity
QVQLVESGGGLVQAGGRLRLSCAASGSIFDLNAMGWYRQAPGKERELVAAISSGGGTYYADSVKGRFTISRDNAKNTVYLQMNSLKPEDTAVYYCNRVTRWTYNYWGQGTQVTVSS	high polyreactivity
QVQLVESGGGLVQAGGRLRLSCAASGSIFRYYAMGWYRQATGKERELVAAITRGDSTNYADSVKGRFTISRDNAKNTVYLQMNSLKPEDTAVYYCAASRYHGWYVKMGYWGQGTQVTVSS	high polyreactivity
QVQLVESGGGLVQAGGRLRLSCAASGSIFTPNAMGWYRQAPGKEMELVAAISSSSDRTYYADSVKGRFTISRDNAMITVYLQMNSLNPEDTAVYYCAAETNTWYLFDFWGQGTQVTVSS	high polyreactivity
QVQLVESGGGLVQAGGRLRLSCAASGSIFVGYAMGWYRQAPGKERELVAAISTRGGSTYYAHSVKGRFTISRDNAKNTVYLQMNSLKPEDTAVYYSAADYLDSTYGYVYGWDDYWGQGTQVTVST	low polyreactivity
QVQLVESGGGLVQAGGRLRLSCAASGSIFYGYDMGWYRQAPGKERELVAAITIGGGTTYYADSVKGRFTISRDNAKNTVYLQMNSLKPEDTAVYYCAKTYARPTRVQKYSGEGGYWGQGTQVTVSS	high polyreactivity
QVQLVESGGGLVQAGGRLRLSCAASGSISGYYAMGWYRQAPGKERELVASIRYTGARTYYADSVKGRFTISRDNAKNNVYLQMNSLKPEDTAVYYCAADVKRDRVWGGDYWGQGTQVTVSS	low polyreactivity
QVQLVESGGGLVQAGGRLRLSCAASGSISVTKAMGWYRQAPGTERELVAAISGSGGSTYADSVKGRFTISRDNAKNTVYLQMNSLKPVDTAVYYCDRDRYYTREWYWYRHDHWGQGTQVTVSS	low polyreactivity
QVQLVESGGGLVQAGGRLRLSCAASGSISWVYAMGWYRQAPGTERELVADITDSGDSTYYADSVKGRFTISRDNAKNTVYLQMHSLKPEDTAVYYSAAPGSRHYYIYWPYNYWGQGTQVTVSS	low polyreactivity
QVQLVESGGGLVQAGGRLRLSCAASGSTFAGNAMGWYRQAPGKERELVAAIDSSTGSTYYADSVKGRFTISRDNAKNTVYLQMNSLKAEDTAVYYCNKTSFLVKLDYWGQGTQVTVSS	low polyreactivity
QVQLVESGGGLVQAGGRLRLSCAASGSTFAINAMGWYRQAPGKERELVAAITWSGGSTYYADSVKGRFTISRDNAKNTVYLQMNSLKPEDTAVYYCNAKSYRHLLYIPYKYNYWGQGTQVTVSS	high polyreactivity
QVQLVESGGGLVQAGGRLRLSCAASGSTFGYYAMGWNRQAPGKERELVAAISSRDGSTFYADSVKGRFTISRDNAKNTVFLQMNSLKPDDTAVYYCAKVFFHTPIVPEYDYCGQGTQVTVSS	low polyreactivity
QVQLVESGGGLVQAGGRLRLSCAASGSTFKAYAMGWYRQAPGKERELVAAISSGGSRTYYADSVKGRFTISRDNAKITVYLQMHRLKPEDIEVYYCAARKADTVFKFEYWGQGTLVTVSS	high polyreactivity
QVQLVESGGGLVQAGGRLRLSCAASGSTFKRYVMRLYRQAPGKERELVAAITWSGTRTYYADSVKGRFTISRDNAKNTVYLQMNSLKPEDTAVYYSAAVADRYPYSGYNYYSWGQGTQVTVSS	high polyreactivity
QVQLVESGGGLVQAGGRLRLSCAASGSTFRYYALGWYRQAPGKERELVAVISSTGSRTNYADSVKGRFTISRDNAKNTVYLQMNSLKPEHTAVYYCAADTTRRAPGYYYWGQGTQETVSS	high polyreactivity
QVQLVESGGGLVQAGGRLRLSCAASGSTFTHYAMGWYRQAPGKERELVAAISSGGSTYYADSVKGRFTISRDNAKNTVYLQMNSLKPEDTAVYYCAADYDWHDWWYPHDYWGQGTQVTVSS	low polyreactivity
QVQLVESGGGLVQAGGRLRLSCAASGSTFWLNAMGWSRQATGKERELFADSSRSGGSTYYADSVKGRFTISRDNAKNTVYLQMNSLKPEDTAVYYCAADSWPDQFTVYPGGDYWGQGTQVTVSS	low polyreactivity
QVQLVESGGGLVQAGGRLRLSCAASGSTFWYYAMGWYRQAPGKEREFVAGISTSGVSTYYADSVKGRFTISRDNAKNTVYLQMNSLKPEDTAVYYCAADYIFRRAGWYLMDYWGQGTQVTVSS	high polyreactivity
QVQLVESGGGLVQAGGRLRLSCAASGSTFYWNTMGWYIQAPGKERELVAAISRRGGSTYYADSEKGRFTISRDNAKNTVYLQMNSLKPEETAVYYCNKLLSQRRYHSEMDYWGQGTQVTVSS	high polyreactivity
QVQLVESGGGLVQAGGRLRLSCAASGSTIPRYAMGWSRQAPGKERELVAAITNGGSTNYADSVKGRFTISRDNAKNTVYLQMNSLKPEDTAVYYCAKRFGYRFYYGGQGTQVTVSS	high polyreactivity

Sequence	polyreactivity (PSR sort gate)
QVQLVESGGGLVQAGGRLRLSCAASGTIFGPYAMGWYRQAPGKEREFVAAISRSGTRTNYADSVKGRFTISRDNAKNTVYLQMNSLKPEDTAVYYCAAGYYGPDPRNRYRYNYWGQGTQVTVSS	high polyreactivity
QVQLVESGGGLVQAGGRLRLSCAASGYIFSRYAMGWYRQAPGKERELVAAISKSGSSTYYADSVKGRFTISRDNAKNTVYLQMNSLKPEDTAVYYCATSYSVGYDYWGQGTQVTVSS	high polyreactivity
QVQLVESGGGLVQAGGRLRLSCAASGYTFVVNAMGWYRQAPGKERELVAAITGGDSTNYADSVKGRFTISRDNATNTVYLQMNSLKPEDTAVYYCAKRDVLPFQTVTGSRNDYWGQGTQVTVSS	low polyreactivity
QVQLVESGGGLVQAGGRLRLSCAASVRIFRVYAMGWYRQEPGKERELVAAISWSGGRTYYADSVKGRFTISRDNAKNTVYLQMNSLKPEHTAVYYCAAVSGYALGYDYWGQGTQVTVSS	high polyreactivity
QVQLVESGGGLVQAGGRLRLSCAASVSIFNPYTMGWYRQAPGKERELVAAISYRGGSTYYADSVKGRFTISRDNAKNTVYLQMNSLKREDTAVYYCAAQVRYLGYRYDYWGQGTQVTVSS	high polyreactivity
QVQLVESGGGLVQAGGRLRLSCADSGRTFYYYAMGWYRQAPGKERELVAAIRWRATSTFYADSVKGRFTISRDNAKNTVYLQMNSLKPEDTAVYYCATTGGYRLQAQKYYYWGQGTQVTLSS	high polyreactivity
QVQLVESGGGLVQAGGRLRLSCAPSGRIFVYNAMGWYRQAPGKERELVAAINSGDSTYYADSVKGRFTISRDNAKKTVYLQMNSLKPEDTAVYYCARDGWAFSIYYDLDYWGQGTQVTVSA	low polyreactivity
QVQLVESGGGLVQAGGRLRLSCASSGIIFRYNAMGWYRQAPGKERELVAAISSSGTTNYADSVKGRFTISRDNAKNTVYLQMNSLKPEDTAVYYCAARRSYARRFKNSMEYWGQGTQVTVSS	high polyreactivity
QVQLVESGGGLVQAGGRLRLSCATSGYIFYDYDMGWYRQAPGKERELVAAIRRSTGTTYYADSVKGRFTISRDNEKNTVYLLMISLKPESTAVYYCAALFRPRVHRYDYWGQGTQVTVSS	low polyreactivity
QVQLVESGGGLVQAGGRLRLSCSASGLTVYRKAMGWSRQAPGKEREMVAAITSSGGRTYYADSVKGRFTISRDNAKNTVYLLMNSLKAEDTALYYCAADFCLGYYYWGQGTQVTVSS	high polyreactivity
QVQLVESGGGLVQAGGRLRLTCAASGFTFGRYAMGWYRQAPGKERDLVADITSGSGGTYYADSVKGRFTISRATAKNSVYLQMNSLKPEDTAVYYCATGSRSRGALRYAHFDFWGQGTQVSVSS	high polyreactivity
QVQLVESGGGLVQAGGRLRLTCAASGSIFLEYTMGWSRQAPGKEREVVASISWGGGSTYYADSVKGRFTISRDNAKNTVYLQMNSLKPEDTAVYYCAAVTKLSGIRYNYWGQGTQVTVSS	low polyreactivity
QVQLVESGGGLVQAGGRLRLTCAASGSIFPTYDLGWYRQAPGKERELVAAIRGDGSTNYADSVKGRFTISRDNAKNTVYVQMNSLKPEDTAVSYCAAVSSEYVFRYGGYWGQGTQVTVSS	low polyreactivity
QVQLVESGGGLVQAGGRLSLSCAASGSTFAYYAMGWYRQAPGKERELVAGITWTGGSTYYADSVKGRFTNSRDNAKNTVYLQMNSLKPEDTAVYYCAVTYPYGYEYDHWGQGTQVTVSS	low polyreactivity
QVQLVESGGGLVQAGGSGRLSCAASGITCAYYAMGWYRQAAGKERELVAVITSGGRPNYADSVKGRVTISRDNAKNTVYLQMNSLKPEDTAVYYCAAYRSSKTLRRGYYYWGQGTQVTGSS	high polyreactivity
QVQLVESGGGLVQAGGSHRISCAASGLTFFRNAMGWYRQAPGKERELVATITSTSSTNYADSVKGRFTISRDNAKNKVYLQMYSVKPEDTAVYYCNARVYYKYVGRMYYWGQGTQVTVSS	high polyreactivity
QVQLVESGGGLVQAGGSHRISCAASGRTFARYVMGWYRQAPGKERELVAAISRSGGTYYADSVKGRFTISRDNAKNTVYLQMNSLKPEDTAVYYCRIPSHGGVYWGQGTQVTVSS	high polyreactivity
QVQLVESGGGLVQAGGSHRLRCAASGLIIGDYGMGWYRQAPGKERELVAAITDRGGTTYYADSVKGRFTISRDNAKNTVYFQMNSLKPEDTAVYYCIARQSDIFDYDYWGQGSQVTVSS	low polyreactivity
QVQLVESGGGLVQAGGSHRLSCAASGFIFSYYAKGRYRQAPGKERELVAAISSSGGTTYADSVKGRFTISRDNAKNTVYLHMNSLKPEDTAVYYCARVQYWFYKPMYYWGQGTQVTVSS	high polyreactivity
QVQLVESGGGLVQAGGSHRLSCAASGFIFSYYAMGWYRQAPGKERELVAAITDSGGSTYYADSVKGRFTISRDNAKNTVYLQMNSLKPEDTAVYYCAATYWWAYVWAYSHVKSTNDYWGQGTQVTVSS	low polyreactivity
QVQLVESGGGLVQAGGSHRLSCAASGFTFYRYAMGSYRQAPGKERELVAAITGGGSTYYADSVKGRFTISRDNAKNTVYLQMNSLKPVDTAVYYCNAYHIVIYDYWGQGTQVTVSS	low polyreactivity
